Experimental data from PMC3163394 (Cell, 2011).

Molecular target: the molecule itself
Assay: crystal structure

B1: Shb17 (H13A), catalytically inactive mutant of sedoheptulose-1,7-bisphosphatase (enzyme, S. cerevisiae)
chain: MPSLTPRCIIVRAGQTEWSKSGQYTGLTDLPLTPYGEGQMLRTGESVFRNNQFLNPDNITYIFTSPRLRARQTVDLVLKPLSDEQRAKIRVVVDDDLREWEYGDYEGMLTREIIELRKSRGLDKERPWNIWRDGCENGETTQQIGLRLSRAIARIQNLHRKHQSEGRASDIMVFAHGHALRYFAAIWFGLGVQKKCETIEEIQNVKSYDDDTVPYVKLESYRHLVDNPCFLLDAGGIGVLSYAHHNIDEPALELAGPFVSPPEEESQHGDV
stoichiometry N: 2
